Measured values: patent publication US6593108B1 (priority 1999, dated 2003)
Where “and” joins values, the source holds several entries; their conditions need not be identical. Identical values can stand only once. Blank lines part the entries; values can stand above or below the molecule they belong to. Where a SMILES comes first, the peptide text is derived from it. Bridges are numbered along the chain shown (N, C = ends). Where no end group is shown, it is not given here.

What was measured:
HG67 = biological target: T1, HG67 (Homo sapiens, UniProt Q969V1); assay: Intracellular calcium ([Ca2+]i) measurement with fura-2 in HEK293T cells transiently expressing HG67; type: cell-based; settings: HEK293T cells transiently expressing HG67, fura-2; read-out: EC50 of increase in intracellular calcium levels
T1 construct: expressed in transfected cells; host or cells: HEK-293T, transient
T1 sequence (Q969V1 whole entry): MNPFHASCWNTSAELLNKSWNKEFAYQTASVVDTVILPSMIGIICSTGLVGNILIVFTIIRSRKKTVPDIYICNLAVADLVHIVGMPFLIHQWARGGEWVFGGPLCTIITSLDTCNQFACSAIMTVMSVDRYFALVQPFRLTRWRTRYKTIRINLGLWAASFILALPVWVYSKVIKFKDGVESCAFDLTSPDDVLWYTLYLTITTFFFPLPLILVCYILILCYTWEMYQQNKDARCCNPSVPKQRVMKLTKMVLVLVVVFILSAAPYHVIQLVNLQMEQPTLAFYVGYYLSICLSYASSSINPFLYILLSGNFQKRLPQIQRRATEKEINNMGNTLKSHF
From the text: (§1) The entire coding sequence of human HG67 was cloned into BamHI -NotI site of pEF1/V5-HisB plasmid vector (Invitrogen, Carlsbad, Calif.). The resultant construct was transfected into HEK-293T cells using Effectene (Qiagen, Hilden, Germany) or LipofectAmine PLUS (Life Technologies) according to the manufacture's instructions. Human embryonic kidney cells constitutively expressing SV40 large T antigen (HEK-293T) were maintained in D-MEM/F-12 medium (Life Technologies, Rockville, Md.) supplemented with 10% fetal bovine serum, 100 units/ml penicillin-G and 100 μg/ml streptomycin at 37° C. with 5% CO2 in a humidified atmosphere.
(§2) The intracellular calcium ion concentration ([Ca^2+]i) was measured fluorometrically using a Ca^2+-sensitive fluorescent dye, fura-2. HEK293T cells transiently transfected with pEF1/V5-HisB plasmid vector harboring HG67 cDNA were harvested by phosphate-buffered saline containing 2 mM EDTA 48 hours after transfection, and washed once with the assay buffer (Hanks' balanced salt solution, 10 mM HEPES, 0.1% BSA, pH 7.4). The cells were suspended with the buffer containing 2 μM fura-2 acetoxymethylester (Dojin, Kumamoto, Japan) into the cell density of 1.0×10^7 cells/ml and incubated at 37° C. for 60 minutes with gently shaking. The fura-2-loaded cells were washed twice with the buffer and re-suspended with the buffer to 1.0×10^6 cells/ml. […]

non-transfected cells = assay: Intracellular calcium ([Ca2+]i) measurement with fura-2 in non-transfected cells; type: cell-based, human; settings: data not shown
From the text: as §1, §2

[1] = biological target: HG67 (melanin-concentrating hormone receptor 2) (human) (UniProt Q969V1); assay: SPA, displacement of [125I]Phe13Tyr19-MCH from MCH-R2 membranes
HG67 (melanin-concentrating hormone receptor 2) (human), sequence (Q969V1 whole entry): as above

MCH-R1 [2] = biological target: T2, MCH-R1 (Homo sapiens, UniProt Q99705); assay: SPA, displacement of [125I]Phe13Tyr19-MCH from MCH-R1 membranes
[3] = biological target: HG67 (melanin-concentrating hormone receptor 2) (human) (UniProt Q969V1); assay: cell-based or functional assay
MCH-R1 [4] = biological target: T2, MCH-R1; assay: cell-based or functional assay
MCH-R1 [5] = biological target: T2, MCH-R1; assay: SPA, CHO/MCH-R1 membranes, nonspecific defined with 500 nM unlabeled MCH
[6] = biological target: HG67 (melanin-concentrating hormone receptor 2) (human) (UniProt Q969V1); assay: SPA, COS or CHO MCH-R2 membranes, nonspecific defined with 500 nM unlabeled MCH
mock transfected cells = assay: [125I]-MCH binding to mock transfected HEK293T cells; parameters: species or system human
MCH-R1 [7] = biological target: T2, MCH-R1; settings: Lembo, et al., 1999; cited from earlier work
MCH-R1 [8] = biological target: T2, MCH-R1; assay: Pertussis toxin effect on MCH-R1 signaling; type: cell-based; settings: dose dependent
From the text: MCH-R2 appears to activate Gαq. […] Intracellular calcium mobilization through MCH-R2 was not affected by different concentrations of pertussis toxin (PTX), while MCH-R1 signaling was reduced in a dose dependent manner to about 50%. The results of incomplete PTX-inhibition of MCH-R1 signaling is in contrast to Lembo, et al., 1999. […] (Tadayyon, et al., 2000. 275(2), 709-712).

MCH-R1 [9] = biological target: T3, MCH-R1 (Homo sapiens (Human), UniProt Q99705 1-353); assay: SPA, displacement of [125I]Phe13Tyr19-MCH from MCH-R1 membranes
T3 construct: also called MCH-1R; CHO/MCH-R1
T3 sequence (Q99705 whole entry, form in doubt): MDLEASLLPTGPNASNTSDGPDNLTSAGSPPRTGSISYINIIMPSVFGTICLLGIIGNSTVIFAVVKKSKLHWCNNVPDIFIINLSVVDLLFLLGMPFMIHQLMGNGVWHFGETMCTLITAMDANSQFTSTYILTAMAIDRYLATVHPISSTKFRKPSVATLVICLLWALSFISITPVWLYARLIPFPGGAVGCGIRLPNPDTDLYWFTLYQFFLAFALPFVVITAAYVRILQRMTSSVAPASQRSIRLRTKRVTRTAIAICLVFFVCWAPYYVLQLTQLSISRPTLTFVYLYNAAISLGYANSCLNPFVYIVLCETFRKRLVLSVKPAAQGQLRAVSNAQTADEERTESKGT
Procedure: (§3) SPA was carried out using wheat-germ agglutinin-polyvinyltoluene beads (Amersham Corp., Arlington Heights, Ill.), in 96-well OptiPlates (Packard, Meriden, Conn.). Each well contained 0.25 mg of SPA beads, 1–10 μg of membrane protein, and 200 μl of binding buffer.
(§4) After equilibrating at room temperature for 3 hours, the plates were read in a TopCount (Packard, Meriden, Conn.). IC$50$ calculations were performed using Prism 3.0 (GraphPad Software, San Diego, Calif.).

[10] = biological target: T4, HG67 (melanin-concentrating hormone receptor 2) (human, UniProt Q969V1 1-340); assay: cell-based or functional assay
T4 sequence (Q969V1 whole entry): as the sequence (Q969V1 whole entry) above

MCH-R1 [11] = biological target: T3, MCH-R1; assay: cell-based or functional assay
[12] = biological target: T4, HG67 (melanin-concentrating hormone …); assay: SPA, displacement of [125I]Phe13Tyr19-MCH from MCH-R2 membranes
Procedure: as §3, §4

[13] = biological target: T4, HG67 (melanin-concentrating hormone …); assay: cell-based or functional assay; remark: listed apart in the source

EC50 (HG67): 0.078 nM
Molecule: CSCC[C@@H]1NC(=O)[C@@H](NC(=O)[C@H](CCCNC(=N)N)NC(=O)[C@H](CC(C)C)NC(=O)[C@H](CCSC)NC(=O)[C@H](CC(=O)O)NC(=O)[C@H](Cc2ccccc2)NC(=O)[C@@H](N)CC(=O)O)CSSC[C@@H](C(=O)N[C@@H](Cc2c[nH]c3ccccc23)C(=O)N[C@@H](CCC(N)=O)C(=O)N[C@@H](CC(C)C)C(=O)O)NC(=O)[C@@H]2CCCN2C(=O)[C@H](CCCNC(=N)N)NC(=O)[C@H](Cc2ccccc2)NC(=O)[C@H](C(C)C)NC(=O)[C@H](CCCNC(=N)N)NC(=O)CNC(=O)[C@H](CC(C)C)NC1=O [[Phe^13, Leu^19]-MCH] (H-DFDMLRCMLGRVFRPCWQL-OH; disulfide 7-16 (inferred); N-terminus and C-terminus assumed)
[Ca2+]i increase in the non-transfected cells (non-transfected cells): failed to induce detectable [Ca^2+]i increase

specific binding window (MCH-R1 [5]): 6 x | specific binding window [6]: 3 x
Molecule: [125I]Phe^13Tyr^19-MCH (from UniProt P20382 147-165) (peptide)

increase in intracellular calcium levels (fura-2), EC50 [3]: 0.078 nM
Molecule: [Phe^13, Leu^19]-MCH (from UniProt P20382 147-165) (peptide)

IC50 (MCH-R1 [9]): 0.3 nM | Function (EC50) [10]: 65.5 nM | Function (EC50) (MCH-R1 [11]): 83.1 nM | IC50 [12]: 0.8 nM
Molecule: DFDMLRCMLGRVFRPCWQY [(Phe^13Tyr^19)-MCH]

IP turnover, EC50 [13]: 2.8 nM | aequorin assay in HEK293/aeq17/Galpha15 cells, EC50 [13]: 26 nM | increase in intracellular calcium levels (fura-2), EC50 [13]: 0.02 nM | Function (EC50) [10]: 44.1 nM | IC50 [12]: 1.5 nM
B1: human melanin-concentrating hormone (MCH) (peptide, UniProt P20382 147-165, looked up)
peptide: DFDMLRCMLGRVYRPCWQV
modifications: ends and bridges not checked; cysteine pairing not given here
notes: mature; Both are treated as one molecule; the mature 19-mer is its C-terminal part; also called Human MCH; cold MCH

More lines, now with the values behind:

Molecule: Melanin-concentrating hormone [MCH]
[Ca2+]i increase in the non-transfected cells (non-transfected cells): failed to induce detectable [Ca^2+]i increase

Molecule: Salmon MCH (peptide)
IC50 [1]: 437 nM | IC50 (MCH-R1 [2]): 0.2 nM | Function (EC50) [3]: 90.5 nM | Function (EC50) (MCH-R1 [4]): 119 nM

Molecule: [^125I]-MCH: radioiodinated MCH, NEN Life Science Products
Specific binding to mock transfected cells (mock transfected cells; in words): any specific binding was not observed | Nonspecific binding (1 μM MCH) (mock transfected cells; mock transfected HEK293T cells, [125I]-MCH 100 pM plus 1 μM cold MCH, two values per cell): 352.2 Cpm and 326.6 Cpm | Total binding (DMSO) (mock transfected cells; mock transfected HEK293T cells, [125I]-MCH 100 pM, two values per cell): 516.4 Cpm and 392.5 Cpm

Molecule: pertussis toxin
PTX inhibition of MCH-1R signaling (MCH-R1 [7]): complete PTX inhibition | MCH-R1 signaling remaining after PTX (reduced to) (MCH-R1 [8]): about 50%
